Ends that are not written are not given here. * marks the point of attachment. Biotin = O=C1N[C@H]2[C@H](CS[C@H]2CCCCC(=O)*)N1
T1: FLAG-γ1-COP (N-terminal FLAG-tagged human γ1-COP) (human, UniProt Q9Y678 1-874)
T1 sequence (looked up): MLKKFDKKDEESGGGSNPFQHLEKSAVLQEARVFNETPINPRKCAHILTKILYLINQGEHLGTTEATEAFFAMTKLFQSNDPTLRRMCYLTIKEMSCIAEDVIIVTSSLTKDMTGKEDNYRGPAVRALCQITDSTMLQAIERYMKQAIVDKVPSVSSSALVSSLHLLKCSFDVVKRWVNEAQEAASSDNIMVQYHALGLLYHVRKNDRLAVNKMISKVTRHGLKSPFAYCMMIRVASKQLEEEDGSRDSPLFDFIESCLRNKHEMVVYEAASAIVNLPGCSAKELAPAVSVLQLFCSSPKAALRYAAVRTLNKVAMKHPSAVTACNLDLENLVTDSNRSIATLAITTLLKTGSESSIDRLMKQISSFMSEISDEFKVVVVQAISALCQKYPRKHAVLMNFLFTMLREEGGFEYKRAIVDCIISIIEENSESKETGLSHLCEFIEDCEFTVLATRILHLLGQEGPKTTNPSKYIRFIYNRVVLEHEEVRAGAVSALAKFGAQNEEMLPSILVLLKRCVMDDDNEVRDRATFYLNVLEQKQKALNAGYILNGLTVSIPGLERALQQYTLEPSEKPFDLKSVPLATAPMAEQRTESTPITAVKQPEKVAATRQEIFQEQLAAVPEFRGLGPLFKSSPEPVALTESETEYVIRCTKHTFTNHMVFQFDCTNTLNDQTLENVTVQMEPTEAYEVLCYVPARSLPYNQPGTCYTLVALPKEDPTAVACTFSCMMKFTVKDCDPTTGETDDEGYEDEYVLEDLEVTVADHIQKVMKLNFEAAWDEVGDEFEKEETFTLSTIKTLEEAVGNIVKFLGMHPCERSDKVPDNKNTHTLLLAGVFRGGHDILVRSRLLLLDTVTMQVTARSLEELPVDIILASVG

B1: biotin-tagged WT HPV16 L2 peptide (residues T299 to L312) (peptide)
peptide: Biotin-TGIRYSRIGNKQTL
B2: HA-(Δ1–67) L2-3xFLAG (domain or fragment, HPV16, UniProt P03107 68-473, looked up)
chain: GRTGYIPLGTRPPTATDTLAPVRPPLTVDPVGPSDPSIVSLVEETSFIDAGAPTSVPSIPPDVSGFSITTSTDTTPAILDINNTVTTVTTHNNPTFTDPSVLQPPTPAETGGHFTLSSSTISTHNYEEIPMDTFIVSTNPNTVTSSTPIPGSRPVARLGLYSRTTQQVKVVDPAFVTTPTKLITYDNPAYEGIDVDNTLYFSSNDNSINIAPDPDFLDIVALHRPALTSRRTGIRYSRIGNKQTLRTRSGKSIGAKVHYYYDLSTIDPAEEIELQTITPSTYTTTSHAASPTSINNGLYDIYADDFITDTSTTPVPSVPSTSLSGYIPANTTIPFGGAYNIPLVSGPDIPINITDQAPSLIPIVPGSPQYTIIADAGDFYLHPSYYMLRKRRKRLPYFFSDVSLAA

Tests used:
[1] = target: T1, FLAG-γ1-COP (N-terminal FLAG-tagged …); experiment: pull-down
[2] = target: T1, FLAG-γ1-COP (N-terminal FLAG-tagged …); experiment: co-IP

Binder | binding result [1] | binding result [2]
B1 | binds | –
B2 | – | binds

From paper PMC9858521 (Science Advances, 2023)
